Reference: publication PMC4488448

Molecular target: HER-2 (human (endogenous in SKBR3 and T47D)) (UniProt P04626)

Substance	IC50 of killing of HER-2-overexpressing SKBR3 cells (luminescent cell viability assay; Fig 4A) [µg/mL]
eSrtA-conjugated cFRP5-DM1 (antibody)	0.067
eSrtA-conjugated cFRP5-maytansine (antibody)	0.0779
